Substitutions are numbered along the chain they refer to. Numbers in names are those of the source.
B1: H1M1819N (antibody, V domains shown)
VH: EVQLVESGGGVVRPGGSLRLSCAASGFTFDDYAMHWVRQAPGKGLEWVAGISWNSGSIDYADSVKGRFTISRDNAKNSLYLQMNSLRAGDTALYYCAKDILDLDYYGLDVWGQGTTVTVSS
VL: DIQMTQSPSSLSASVGDRVTITCRASQDISSYLAWYQQKPGKVPNLLIYDASSLQSGVPSRFSGSGSGTDFTLTLSSLQPEDFASYYCQNYNSAPYTFGQGTKLEIK
B2: H2M1821N (antibody, mouse IgG2, V domains shown)
VH: EVQLVESGGGLVQPGRSLRLSCAASGFTFDDYAMHWVRQAPGKGLEWVSSISWNSGSIGYADSVKGRFTISRDNAKNSLYLQMNSLKPEDTALYYCTKDTDYGDYLDAFDIWGQGTMVAVAS
VL: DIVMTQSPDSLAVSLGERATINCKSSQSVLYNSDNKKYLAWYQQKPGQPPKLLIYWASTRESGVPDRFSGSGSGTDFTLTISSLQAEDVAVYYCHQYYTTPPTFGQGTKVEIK
B3: H2M1824N (antibody, mouse IgG2, V domains shown)
VH: EVQLVESGGGVVRPGGSLRLSCAASGFTFDDYGMSWVRQAPGKGLECVSGINWNGGSTDYADSVKGRFTISRDNAKNSLYLQMNSLRAEDTASYYCARDGGDWDYFDLWGRGTLVTVSS
VL: EIVMTQSPATLSVSPGERATLSCRASQSVSSNLAWYQQKPGQAPRLLIYGASTRATGIPARFSGSGSGTEFTLTISSLQSEDFAVYFCQEYNDWPLTFGGGTKVEIK
B4: H2M1827N (antibody, mouse IgG2, V domains shown)
VH: B3 VH with N52S, S57N, S93L, Y95H
VL: B3 VL with V3L, V85I, F87Y
B5: H1M1828N (antibody, V domains shown)
VH: EVQLVESGGGLVQPGRSLRLSCAASGFTFDDYAMYWVRQAPGKGLEWVSGISWNSGSIGYADSVKGRFTISRDNAKNSLYLQMDSLRAEDTALYYCARDMMEVDLYGMDVWGQGTTVTVSS
VL: DIQMTQSPSSVSASVGDRVTITCRASQDISSWLAWYQQKPGTAPKFLIYETSSLQSGVPSRFSGSGSGTDFILTISSLQPEDFATYYCQQTDSFPHTFGQGTKLEIR
B6: H2M1829N (antibody, mouse IgG2, V domains shown)
VH: B3 VH with A23V, S93L, Y95H
VL: B3 VL with V3L, V85I, F87Y
B7: H4H2132P (antibody, human IgG4, V domains shown)
VH: EVQLVESGGGVVRPGGSLRLSCAASGFTFDDYGMSWVRQFPGKGLEWVSSIDGNGGNTGYSDSVKGRFTISRDNAKNSLHLQMNSLRAEDTALYHCARDPDYDSVWGNYRPFDYWGQGTLVTVSS
VL: DIVMTQSPDSLAVSLGERATINCKSSQSVLSSSNDNNYLAWFQQKPGQPPNLLIYWASTRDSGVPDRFSASGSGTDFTLAISSLQAEDVAVYYCHQYYSSPPTFGQGTKVEIKR
notes: Human IgG4 Fc (prefix H4H)
B8: H4H2138P (antibody, human IgG4, V domains shown)
VH: QVQLQESGPGLVKPSQTLSLTCTVSGGSINSGGYYWSWIRQHPGKGLEWIGYISYSGNTNYNPSLKSRVTISVDTSKNQFSLTLTSVTAADTAVYYCARDSDVDTGLVDGFDVWGQGTMVTVSS
VL: DIVMTQSPSSVSASVGDRVTITCRASQGVSSWLAWYQQKPGKAPKLLIYTTSSLQSGVPSRFSGSGSGTDFTLTISSLQPEDFATYYCQQSNSFPFTFGPGTKVEIK
notes: Human IgG4 Fc (prefix H4H)
B9: H4H2140P (antibody, human IgG4, V domains shown)
VH: EVQLVESGGGLVQPGGSLRLSCAASGFSVSYYDMHWVRQVTGKGLEWVSAIGPAGDTYYPGSVKGRFTISREDATNSLYLQIHSLGAGDTAVYYCAREGAIAARPDDYYGMDVWGQGTTVTVSS
VL: DIQLTQSPSFLSASVGDRVTITCWASQDISSYLAWYQQKPGKAPKLLIYAASTLQSGVPSRFSGSGSGTEFTLTISSLQPEDFATYYCQQLNSYPLTFGGGTKVEIKR
notes: Human IgG4 Fc (prefix H4H)
B10: H4H2143P (antibody, human IgG4, V domains shown)
VH: EVQLVESGGGLVQPGRSLRLSCAASGFTFGDYAMHWVRQAPGKGLEWVSGINLNSGTIGYADSVKGRFTISRDNAKNSLYLQMNSLRAEDTAFYYCAKDIDGYYHYAMDVWGQGTTVTVSS
VL: B9 VL with I2V, Q3V, L4M, D28G, A50D, Q55E, S77N, L91V
notes: Human IgG4 Fc (prefix H4H)
B11: H4H2146P (antibody, human IgG4, V domains shown)
VH: QVQLVESGGGVVQPGRSLRLSCAASGFTFINYGIHWVRQGPGKGLEWVAVIWYDGSNEWYADSVKGRFTISRDNSKNTVYLEMNKLRAEDTAVYYCAREEEDYGMDVWGQGTTVTVSS
VL: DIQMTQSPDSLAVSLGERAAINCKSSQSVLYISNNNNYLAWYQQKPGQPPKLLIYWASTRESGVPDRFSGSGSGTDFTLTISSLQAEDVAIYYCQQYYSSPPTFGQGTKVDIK
notes: Human IgG4 Fc (prefix H4H)
B12: H4H2147P (antibody, human IgG4, V domains shown)
VH: QVQLVESGGGLVKPGGSLRLSCAASGFTFSDFNMGWIRQAPGKGLEWVSHISGSGNVIYYADSVKGRFAISRDNGKNSLYLQVNSLRAEDTAVYYCARDIGDSDAFDIWGQGTMVTVSS
VL: B9 VL with A50G, Q55E, F83V, S93T
notes: Human IgG4 Fc (prefix H4H)
B13: H4H2148P (antibody, human IgG4, V domains shown)
VH: EVQLVESGGGLVHPGRSLRLSCAASGFTFDDYAMHWVRQSPGKGLEWVSGISWNSVIKHSTDSVRGRFTISRDNAKNSLYLQMNSLKPEDTAFYYCAKDEDDWNYLDYWGQGTLVTVSS
VL: DIQMTQSPSSVSASVGDRVTITCRASQDINSWLAWYQQKPGKAPKLLIYTSSNLQSGVPSRFSGSGSGTDFTLTISSLQPEDFATYYCQQSDSFPFTFGPGTKVDIKR
notes: Human IgG4 Fc (prefix H4H)
B14: H4H2151P (antibody, human IgG4, V domains shown)
VH: QVQLVESGGGVVQPGRSLRLSCAASGFTFSNYGMHWVRQAPGKGLEWVARIWYDGSNKYYADSVKGRFTISRDSSKNTLYLQMNSLRAEDTAVYYCAREGEQNLDYYPLDVWGQGTTVTVSS
VL: DIVMTQSPSSLSASVGDRVTITCRASQDIRNDLGWYQQKPGKAPKLLIYAASSLQTGVPSRFSGSVSGTDFTLTISSLQPEDFATYYCLQDYTYPLTFGGGTKVEIK
notes: Human IgG4 Fc (prefix H4H)
B15: H4H2153P (antibody, human IgG4, V domains shown)
VH: QVQLVQSGAEVKKPGASVKVSCKASGYTFTRYGISWVRQAPGLGLEWMGWISAYDGYTNFAQKFQGRFTMTTDTSTNTAYMELRGLRSDDTAVYYCAREEEDAAFDIWGQGTMVTVSS
VL: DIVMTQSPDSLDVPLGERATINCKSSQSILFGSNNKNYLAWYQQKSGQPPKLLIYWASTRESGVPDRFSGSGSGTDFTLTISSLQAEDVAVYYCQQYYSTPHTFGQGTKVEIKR
notes: Human IgG4 Fc (prefix H4H)
B16: H4H2154P (antibody, human IgG4, V domains shown)
VH: QVQLQESGPGLINPSQTLSVTCTVSGGSISSGGYYWTWIRQHPGKGLEWIGYISYSGNTNYNPSLKSRVTISVDTAKNQFSLKLSSVTAADTAVYFCARDSDVDTAMVDGIDIWGQGTMVTVSS
VL: B13 VL with N30S, K42R, S51A, N53S, Y87F, S91A, D92N
notes: Human IgG4 Fc (prefix H4H)
B17: H4H2290P (antibody, human IgG4, V domains shown)
VH: EVQLLESGGGLVQPGGSLRLSCVASGFTFSSFAMSWVRQAPGKGLEWVSVISGSGGSTNHADSVRGRFTISRDNSLNTVYLQMHSLRAEDTALYYCVKAETSSSYFYYGMDVWGQGTTVTVSS
VL: DIQLTQSPSFLSASVGDRVTITCWASQDISSYLAWYQQKPGKVPNLLIYGASSLQPGVPSRFSGSGSGTEFTLTISSLQPEDFATYYCQQLNNYPTFGGGTKLEIKR
notes: Human IgG4 Fc (prefix H4H)

molecular target: ErbB3 (cell surface, on MCF-7, DU145, A431 and MCF7 cells) (human, UniProt P21860 20-1342); assay: cell-based or functional assay

In order of rising “Percent inhibition of Akt phosphorylation, 0.01 µg/ml ErbB3 antibody, DU145 cells + 0.5 nM NRG1” value:
1. B2  11%
2. B4  16%
3. B5  22%
4. B6  22%
5. B3  25%
6. B1  29%

In order of rising “Percent inhibition of Akt phosphorylation, 0.1 µg/ml ErbB3 antibody, DU145 cells + 0.5 nM NRG1” value:
1. B3  63%
2. B5  66%
3. B2  68%
4. B1  72%
5. B4  73%
6. B6  74%

In order of rising “Percent inhibition of Akt phosphorylation, 0.5 µg/ml ErbB3 antibody, DU145 cells + 0.5 nM NRG1” value:
1. B2  73%
2. B3  74%
3. B6  74%
4. B1  75%
5. B4  75%
6. B5  75%

Molecular target: T1, ErbB3-mFc (human)
T1 construct: Dimeric soluble ErbB3; also called hErbB3.mFc
T1 chain: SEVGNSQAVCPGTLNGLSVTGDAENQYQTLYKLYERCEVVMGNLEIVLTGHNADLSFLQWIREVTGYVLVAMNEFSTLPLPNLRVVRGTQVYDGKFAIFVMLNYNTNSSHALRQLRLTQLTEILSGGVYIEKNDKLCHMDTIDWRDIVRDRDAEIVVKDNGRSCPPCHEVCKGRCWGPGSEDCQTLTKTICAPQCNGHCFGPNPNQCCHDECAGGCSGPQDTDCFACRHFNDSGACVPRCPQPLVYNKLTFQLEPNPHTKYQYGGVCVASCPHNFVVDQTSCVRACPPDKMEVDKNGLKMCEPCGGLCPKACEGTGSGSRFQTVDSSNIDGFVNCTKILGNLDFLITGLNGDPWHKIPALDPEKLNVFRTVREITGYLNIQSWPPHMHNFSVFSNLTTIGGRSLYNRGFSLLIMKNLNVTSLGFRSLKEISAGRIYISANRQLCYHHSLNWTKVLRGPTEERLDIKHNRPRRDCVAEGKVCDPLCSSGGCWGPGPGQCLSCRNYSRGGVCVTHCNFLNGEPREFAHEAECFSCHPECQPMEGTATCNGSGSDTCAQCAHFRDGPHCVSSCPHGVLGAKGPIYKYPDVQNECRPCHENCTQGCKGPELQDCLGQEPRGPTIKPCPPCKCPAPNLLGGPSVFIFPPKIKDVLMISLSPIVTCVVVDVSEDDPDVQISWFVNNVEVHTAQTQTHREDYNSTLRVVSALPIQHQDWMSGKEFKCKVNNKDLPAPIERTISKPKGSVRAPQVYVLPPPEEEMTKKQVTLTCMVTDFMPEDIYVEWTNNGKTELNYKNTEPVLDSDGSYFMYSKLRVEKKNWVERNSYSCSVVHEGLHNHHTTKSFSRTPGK
Assay: blocking ELISA: antibody (0-50 nM) + 50 pM ErbB3-mFc, binding to coated neuregulin1b
Excerpt: To further characterize anti-hErbB3 mAbs of the present invention, their ability to block ligand binding was examined via ELISA. […] Plates were washed and non-sequestered (plate bound) ErbB3 was detected with an anti-Fc poly conjugated with horseradish peroxidase (HRP). Plates were developed with TMB (3,3′,5,5′-tetramethylbenzidine) and neutralized with sulfuric acid before reading absorbance at 450 nm on a Victor X5 plate reader. Data analysis used a sigmoidal dose-response model within Prism™ software. […] Maximal blocking for each antibody was calculated by taking the difference in absorbance from zero to 50 nM antibody on the inhibition curve, divided by the difference in absorbance from 50 pM to zero ErbB3 on the dose curve.

In order of falling IC50:
1. B11  0.177 nM
2. B8  0.106 nM
3. B7  0.0957 nM
4. B9  0.0946 nM
5. B16  0.0901 nM
6. B10  0.0835 nM
7. B14  0.0751 nM
8. B15  0.074 nM
9. B17  0.0664 nM
10. B13  0.0508 nM
11. B12  0.0506 nM

In order of rising “Maximal Blocking (%)” value:
1. B15  82%
2. B9  83%
3. B11  83%
4. B14  85%
5. B16  91%
6. B10  92%
7. B7  94%
8. B8  96%
9. B12  99%
10. B17  99%
11. B13  100%
